Results published in patent US7105327.

Molecular target: plasminogen
Sequence (P00747 20-810): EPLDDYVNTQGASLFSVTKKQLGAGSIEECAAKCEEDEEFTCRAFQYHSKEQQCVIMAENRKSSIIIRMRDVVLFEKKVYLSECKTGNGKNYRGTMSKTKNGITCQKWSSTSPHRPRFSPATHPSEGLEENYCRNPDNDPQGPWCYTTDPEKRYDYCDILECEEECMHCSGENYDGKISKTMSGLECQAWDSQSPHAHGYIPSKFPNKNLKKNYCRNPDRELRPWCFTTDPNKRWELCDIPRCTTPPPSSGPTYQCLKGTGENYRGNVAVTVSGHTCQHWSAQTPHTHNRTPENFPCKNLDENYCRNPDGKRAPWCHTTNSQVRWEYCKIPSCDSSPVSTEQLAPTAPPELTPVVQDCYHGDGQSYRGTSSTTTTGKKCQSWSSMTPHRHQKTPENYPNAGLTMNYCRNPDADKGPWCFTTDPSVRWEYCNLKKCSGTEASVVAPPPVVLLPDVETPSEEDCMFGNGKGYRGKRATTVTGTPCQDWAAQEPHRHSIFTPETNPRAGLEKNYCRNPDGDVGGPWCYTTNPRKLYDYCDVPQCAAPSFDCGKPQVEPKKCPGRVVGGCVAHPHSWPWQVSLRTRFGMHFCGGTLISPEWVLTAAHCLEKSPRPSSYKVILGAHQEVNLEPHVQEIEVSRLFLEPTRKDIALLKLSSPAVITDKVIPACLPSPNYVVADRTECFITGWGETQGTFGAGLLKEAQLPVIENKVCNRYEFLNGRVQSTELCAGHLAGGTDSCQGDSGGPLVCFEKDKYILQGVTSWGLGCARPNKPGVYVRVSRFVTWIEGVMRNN

B1: recombinant streptokinase from Streptococcus equisimilis (ATCC 9542) (protein)
chain: IAGPEWLLDRPSVNNSQLVVSVAGTVEGTNQDISLKFFEIDLTSRPAHGGKTEQGLSPKSKPFATDSGAMSHKLEKADLLKAIQEQLIANVHSNDDYFEVIDFASDATITDRNGKVYFADKDGSVTLPTQPVQEFLLSGHVRVRPYKEKPIQNQAKSVDVEYTVQFTPLNPDDDFRPGLKDTKLLKTLAIGDTITSQELLAQAQSILNKNHPGYTIYERDSSIVTHDNDIFRTILPMDQEFTYRVKNREQAYRINKKSGLNEEINNTDLISEKYYVLKKGEKPYDPFDRSHLKLFTIKYVDVDTNELLKSEQLLTASERNLDFRDLYDPRDKAKLLYNNLDAFGIMDYTLTGKVEDNHDDTNRIITVYMGKRPEGENASYHLAYDKDRYTEEEREVYSYLRYTGTPIPDNPNDK
For B1, which “activity in two-stage plasminogen activation assay (plasmin assayed with H-D-Val-Leu-Lys-p-nitroanilide, A405)” value is on record?
The value was 97,500+/-2500 IU/mg protein.
